Consider two molecules from US20190055314A1 (ADAGENE, published 2019).

Assay [1] concerns the target T1, human CD137 ligand (human, UniProt P41273 71-254, limits assumed, biotinylated in Example 6).
T1 construct: also called HuCD137L; biotinylated CD137L
The assay is described as follows: flow cytometry.

Assay [2] concerns the target T2, Hu_CRD2-CRD3-CRD4 (human, UniProt Q07011 46-159, limits assumed).
T2 construct: also called three CRD units (CRD2-CRD3-CRD4) of human CD137
The assay is described as follows: flow cytometry, yeast display [Cont.]. Background: A flow cytometer gives signals particle by particle.

The target in assay [3] is T3, Hu_CRD3-CRD4 (human, UniProt Q07011 87-159, limits assumed).
T3 construct: also called two CRD units (CRD3-CRD4) of human CD137
The assay is described as follows: flow cytometry, yeast display [Cont.].

The target of assay [4] is T4, Hu_CRD1-CRD2-CRD3 (human, UniProt Q07011 24-118, limits assumed).
T4 construct: also called three CRD units (CRD1-CRD2-CRD3) of human CD137
The assay can be described thus: flow cytometry, yeast display [Cont.].

The target in assay [5] is T5, full-length human CD137 on the cell surface (human, UniProt Q07011 18-255).
T5 construct: also called Human WT
The assay is described as follows: flow cytometry, yeast display [Cont.].

In assay [6] the target is T6, Hu_CRD1-CRD2 (human, UniProt Q07011 24-86, limits assumed).
T6 construct: also called two CRD units (CRD1-CRD2) of human CD137
The assay is described as follows: flow cytometry, yeast display [Cont.].

Assay [7] addresses T7, Hu_CRD3 (human, limits assumed).
T7 construct: also called human CD137 CRD3
T7 chain: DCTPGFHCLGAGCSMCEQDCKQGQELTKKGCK
The assay is described as follows: flow cytometry, yeast display [Cont.].

In assay [8] the target is T8, Hu_CRD4 (human, UniProt Q07011 119-159, limits assumed).
T8 construct: also called human CD137 CRD4
T8 chain: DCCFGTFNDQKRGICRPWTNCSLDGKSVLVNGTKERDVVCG
The assay can be described thus: flow cytometry, yeast display [Cont.].

Assay [9] addresses T9, Hu_CRD2-CRD3 (human, UniProt Q07011 46-118, limits assumed).
T9 construct: also called two CRD units (CRD2-CRD3) of human CD137
The assay is described as follows: flow cytometry, yeast display [Cont.].

T1 sequence (P41273 71-254 limits assumed): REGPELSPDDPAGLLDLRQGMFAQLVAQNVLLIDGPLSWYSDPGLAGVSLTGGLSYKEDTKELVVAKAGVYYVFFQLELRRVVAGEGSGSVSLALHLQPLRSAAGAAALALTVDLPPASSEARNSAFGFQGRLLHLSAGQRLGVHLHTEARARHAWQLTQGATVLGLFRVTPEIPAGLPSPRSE

B1: full-length mouse CD137 on the cell surface (receptor)
chain: VQNSCDNCQPGTFCRKYNPVCKSCPPSTFSSIGGQPNCNICRVCAGYFRFKKFCSSTHNAECECIEGFHCLGPQCTRCEKDCRPGQELTKQGCKTCSLGTFNDQNGTGVCRPWTNCSLDGRSVLKTGTTEKDVVCGPPVVSFSPSTTISVTPEGG
B1: in [1], the binding result is given as “no binding”.

B2: mouse CD137L (ligand, UniProt P41274 104-309, looked up)
chain: RTEPRPALTITTSPNLGTRENNADQVTPVSHIGCPNTTQQGSPVFAKLLAKNQASLCNTTLNWHSQDGAGSSYLSQGLRYEEDKKELVVDSPGLYYVFLELKLSPTFTNTGHKVQGWVSLVLQAKPQVDDFDNLALTVELFPCSMENKLVDRSWSQLLLLKAGHRLSVGLRAYLHGAQDAYRDWELSYPNTTSFGLFLVKPDNPWE
B2: the “% in upper right quadrant” value is 0.026% in assay [2]; 0.24% in [3]; 0.19% in assay [4]; 0.16% in assay [6]; 0.2% in assay [7]; 0.15% in assay [8]. In addition, the “% in upper right quadrant” value in [9] was determined as 0.19%. Also, the Mean came to 3260 in assay [2]; 10000 in assay [3]; 4700 in assay [4]; 43800 in [6]; 46000 in assay [7]; 9270 in assay [8]. The molecule also yielded a Mean in [9] of 15900. Moreover, the binding result in assay [5] is recorded as “no binding”.
